Laboratory results published in US20200255869.

Biological target: purified HSA (Abcam, ab201876) (UniProt P02768)
UniProt P02768, sequence (P02768 whole entry, looked up): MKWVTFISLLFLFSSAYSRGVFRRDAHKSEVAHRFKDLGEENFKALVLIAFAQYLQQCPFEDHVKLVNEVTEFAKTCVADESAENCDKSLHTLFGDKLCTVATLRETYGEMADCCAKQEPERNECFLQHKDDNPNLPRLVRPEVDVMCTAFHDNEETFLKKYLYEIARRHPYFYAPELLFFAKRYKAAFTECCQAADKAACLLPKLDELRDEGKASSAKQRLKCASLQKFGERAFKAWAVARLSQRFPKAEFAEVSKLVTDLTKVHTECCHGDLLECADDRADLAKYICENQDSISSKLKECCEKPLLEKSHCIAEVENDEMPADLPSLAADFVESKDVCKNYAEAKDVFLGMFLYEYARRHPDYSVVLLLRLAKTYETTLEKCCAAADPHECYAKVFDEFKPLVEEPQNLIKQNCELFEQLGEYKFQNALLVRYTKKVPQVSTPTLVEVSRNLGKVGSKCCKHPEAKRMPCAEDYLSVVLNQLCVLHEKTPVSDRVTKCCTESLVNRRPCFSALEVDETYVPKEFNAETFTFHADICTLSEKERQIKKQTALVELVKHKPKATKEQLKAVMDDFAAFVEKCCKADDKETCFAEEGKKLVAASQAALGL

## YscB protein of Talaromyces cellulolyticus strain S6-25
  degradation of purified HSA mixed with culture supernatant (30 C, 3 days), SDS-PAGE and Western blotting using an anti-HSA antibody: in the case of the strain deficient in yscB, the bands corresponding to degradation products were eliminated
